B1: Isoform 1 of Cyclin-dependent kinase 2-interacting protein (Homo sapiens), Q9BW66-1 (parent)
chain: MEAKTLGTVTPRKPVLSVSARKIKDNAADWHNLILKWETLNDAGFTTANNIANLKISLLNKDKIELDSSSPASKENEEKVCLEYNEELEKLCEELQATLDGLTKIQVKMEKLSSTTKGICELENYHYGEESKRPPLFHTWPTTHFYEVSHKLLEMYRKELLLKRTVAKELAHTGDPDLTLSYLSMWLHQPYVESDSRLHLESMLLETGHRAL
partner: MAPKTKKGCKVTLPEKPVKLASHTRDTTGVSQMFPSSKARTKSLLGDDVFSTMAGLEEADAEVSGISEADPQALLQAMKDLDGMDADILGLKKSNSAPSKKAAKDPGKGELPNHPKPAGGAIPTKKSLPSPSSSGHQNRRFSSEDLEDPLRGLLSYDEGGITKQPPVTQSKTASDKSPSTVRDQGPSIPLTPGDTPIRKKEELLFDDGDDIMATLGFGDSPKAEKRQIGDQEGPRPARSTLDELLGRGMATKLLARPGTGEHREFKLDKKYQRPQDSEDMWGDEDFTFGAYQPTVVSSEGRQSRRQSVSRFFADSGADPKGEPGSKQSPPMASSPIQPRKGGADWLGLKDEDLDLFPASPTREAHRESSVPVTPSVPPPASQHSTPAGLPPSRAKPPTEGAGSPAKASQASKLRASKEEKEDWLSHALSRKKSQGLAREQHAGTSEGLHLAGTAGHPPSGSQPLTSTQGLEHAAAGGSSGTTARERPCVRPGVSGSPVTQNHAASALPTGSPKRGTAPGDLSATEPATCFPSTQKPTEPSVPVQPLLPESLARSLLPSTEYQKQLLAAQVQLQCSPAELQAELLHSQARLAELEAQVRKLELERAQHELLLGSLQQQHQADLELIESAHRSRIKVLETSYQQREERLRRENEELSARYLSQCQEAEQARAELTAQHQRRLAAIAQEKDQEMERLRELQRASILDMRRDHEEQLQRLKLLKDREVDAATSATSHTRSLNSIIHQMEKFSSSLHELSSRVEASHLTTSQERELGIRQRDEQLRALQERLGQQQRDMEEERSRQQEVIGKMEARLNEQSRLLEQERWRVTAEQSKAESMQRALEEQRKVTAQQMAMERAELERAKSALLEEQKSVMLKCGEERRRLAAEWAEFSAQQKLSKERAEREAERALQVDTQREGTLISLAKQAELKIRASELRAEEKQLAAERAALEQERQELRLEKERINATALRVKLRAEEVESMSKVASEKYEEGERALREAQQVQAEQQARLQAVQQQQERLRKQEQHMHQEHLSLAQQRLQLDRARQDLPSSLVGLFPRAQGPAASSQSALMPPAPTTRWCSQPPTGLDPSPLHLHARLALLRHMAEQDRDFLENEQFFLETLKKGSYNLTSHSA
B2: ATP-binding cassette sub-family F member 3 (Homo sapiens), Q9NUQ8 (parent)
chain: MATCAEILRSEFPEIDGQVFDYVTGVLHSGSADFESVDDLVEAVGELLQEVSGDSKDDAGIRAVCQRMYNTLRLAEPQSQGNSQVLLDAPIQLSKITENYDCGTKLPGLLKREQSSTVNAKKLEKAEARLKAKQEKRSEKDTLKTSNPLVLEEASASQAGSRKESRLESSGKNKSYDVRIENFDVSFGDRVLLAGADVNLAWGRRYGLVGRNGLGKTTLLKMLATRSLRVPAHISLLHVEQEVAGDDTPALQSVLESDSVREDLLRRERELTAQIAAGRAEGSEAAELAEIYAKLEEIEADKAPARASVILAGLGFTPKMQQQPTREFSGGWRMRLALARALFARPDLLLLDEPTNMLDVRAILWLENYLQTWPSTILVVSHDRNFLNAIATDIIHLHSQRLDGYRGDFETFIKSKQERLLNQQREYEAQQQYRQHIQVFIDRFRYNANRASQVQSKLKMLEKLPELKPVDKESEVVMKFPDGFEKFSPPILQLDEVDFYYDPKHVIFSRLSVSADLESRICVVGENGAGKSTMLKLLLGDLAPVRGIRHAHRNLKIGYFSQHHVEQLDLNVSAVELLARKFPGRPEEEYRHQLGRYGISGELAMRPLASLSGGQKSRVAFAQMTMPCPNFYILDEPTNHLDMETIEALGRALNNFRGGVILVSHDERFIRLVCRELWVCEGGGVTRVEGGFDQYRALLQEQFRREGFL
partner: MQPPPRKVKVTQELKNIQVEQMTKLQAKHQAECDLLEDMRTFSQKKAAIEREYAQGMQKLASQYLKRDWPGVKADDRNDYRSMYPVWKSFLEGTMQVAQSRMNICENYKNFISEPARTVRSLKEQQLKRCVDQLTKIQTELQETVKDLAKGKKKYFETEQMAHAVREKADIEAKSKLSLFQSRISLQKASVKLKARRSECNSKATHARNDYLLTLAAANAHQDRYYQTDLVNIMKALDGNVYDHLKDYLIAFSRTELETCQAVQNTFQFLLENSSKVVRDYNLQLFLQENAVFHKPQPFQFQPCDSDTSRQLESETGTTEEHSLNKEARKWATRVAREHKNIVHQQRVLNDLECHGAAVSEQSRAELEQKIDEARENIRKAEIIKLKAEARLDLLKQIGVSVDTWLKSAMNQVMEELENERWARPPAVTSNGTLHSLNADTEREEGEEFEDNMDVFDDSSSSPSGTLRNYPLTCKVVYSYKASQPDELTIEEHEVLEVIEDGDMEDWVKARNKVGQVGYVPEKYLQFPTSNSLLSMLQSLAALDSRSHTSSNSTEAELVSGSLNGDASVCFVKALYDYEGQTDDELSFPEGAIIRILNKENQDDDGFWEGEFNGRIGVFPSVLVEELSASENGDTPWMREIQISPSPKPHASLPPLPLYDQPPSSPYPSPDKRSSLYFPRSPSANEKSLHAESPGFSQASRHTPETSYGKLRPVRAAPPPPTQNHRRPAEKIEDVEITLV
B3: Phenazine biosynthesis-like domain-containing protein (Homo sapiens), P30039 (parent)
chain: MKLPIFIADAFTARAFRGNPAAVCLLENELDEDMHQKIAREMNLSETAFIRKLHPTDNFAQSSCFGLRWFTPASEVPLCGHATLASAAVLFHKIKNMNSTLTFVTLSGELRARRAEDGIVLDLPLYPAHPQDFHEVEDLIKTAIGNTLVQDICYSPDTQKLLVRLSDVYNRSFLENLKVNTENLLQVENTGKVKGLILTLKGEPGGQTQAFDFYSRYFAPWVGVAEDPVTGSAHAVLSSYWSQHLGKKEMHAFQCSHRGGELGISLRPDGRVDIRGGAAVVLEGTLTA
partner: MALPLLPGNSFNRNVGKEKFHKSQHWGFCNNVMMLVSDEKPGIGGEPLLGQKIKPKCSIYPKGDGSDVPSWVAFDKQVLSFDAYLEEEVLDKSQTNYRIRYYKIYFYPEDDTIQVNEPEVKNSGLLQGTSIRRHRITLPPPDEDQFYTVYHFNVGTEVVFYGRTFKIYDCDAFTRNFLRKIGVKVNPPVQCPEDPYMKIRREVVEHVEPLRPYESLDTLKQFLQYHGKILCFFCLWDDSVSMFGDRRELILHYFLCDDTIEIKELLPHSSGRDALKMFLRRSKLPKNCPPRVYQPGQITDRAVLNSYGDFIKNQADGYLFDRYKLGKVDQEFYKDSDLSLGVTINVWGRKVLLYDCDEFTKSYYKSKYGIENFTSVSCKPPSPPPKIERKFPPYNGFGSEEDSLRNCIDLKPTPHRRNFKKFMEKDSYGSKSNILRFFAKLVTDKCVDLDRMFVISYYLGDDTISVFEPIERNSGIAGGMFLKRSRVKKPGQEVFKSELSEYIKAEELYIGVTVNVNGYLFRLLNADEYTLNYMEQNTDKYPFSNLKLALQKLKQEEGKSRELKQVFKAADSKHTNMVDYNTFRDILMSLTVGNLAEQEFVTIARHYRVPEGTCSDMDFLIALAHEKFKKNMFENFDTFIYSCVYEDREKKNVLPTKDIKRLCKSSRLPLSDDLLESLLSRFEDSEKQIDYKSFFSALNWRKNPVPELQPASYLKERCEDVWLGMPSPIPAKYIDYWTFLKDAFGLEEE

Variants of: B1
Details: with fbf1_human FBF1, Q8TES7

effect of a mutation on the interaction	Variant
with no effect	D177N

Variants of: B2
Details: with fcsd2_human FCHSD2, O94868

effect of a mutation on the interaction	Variant
with no effect	R340W
with no effect	R510H

Variants of: B3
Details: with efhc2_human EFHC2, Q5JST6

effect of a mutation on the interaction	Variant
disrupting interaction strength	A235T
disrupting interaction strength	H257R

— IntAct's records for PubMed 31515488
